From PMC5863767, “Mps1 Phosphorylates Its N-Terminal Extension to Relieve Autoinhibition and Activate the Spindle Assembly Checkpoint” (Current Biology, 2018)

Biological target: the molecule itself
Test: cross-linking; BS3 cross-linking of purified GST-Mps1 (10:1 protein:BS3, 2 h on ice; 50 mM HEPES pH 7.5, 250 mM KCl, 0.05% NP-40, 1 mM DTT), NATIVE-PAGE, bands of cross-linked dimers excised, cross-linked peptides identified by mass spectrometry

B1: GST-Mps1-WT (enzyme, human, UniProt P33981 1-857, looked up)
chain: MESEDLSGRELTIDSIMNKVRDIKNKFKNEDLTDELSLNKISADTTDNSGTVNQIMMMANNPEDWLSLLLKLEKNSVPLSDALLNKLIGRYSQAIEALPPDKYGQNESFARIQVRFAELKAIQEPDDARDYFQMARANCKKFAFVHISFAQFELSQGNVKKSKQLLQKAVERGAVPLEMLEIALRNLNLQKKQLLSEEEKKNLSASTVLTAQESFSGSLGHLQNRNNSCDSRGQTTKARFLYGENMPPQDAEIGYRNSLRQTNKTKQSCPFGRVPVNLLNSPDCDVKTDDSVVPCFMKRQTSRSECRDLVVPGSKPSGNDSCELRNLKSVQNSHFKEPLVSDEKSSELIITDSITLKNKTESSLLAKLEETKEYQEPEVPESNQKQWQSKRKSECINQNPAASSNHWQIPELARKVNTEQKHTTFEQPVFSVSKQSPPISTSKWFDPKSICKTPSSNTLDDYMSCFRTPVVKNDFPPACQLSTPYGQPACFQQQQHQILATPLQNLQVLASSSANECISVKGRIYSILKQIGSGGSSKVFQVLNEKKQIYAIKYVNLEEADNQTLDSYRNEIAYLNKLQQHSDKIIRLYDYEITDQYIYMVMECGNIDLNSWLKKKKSIDPWERKSYWKNMLEAVHTIHQHGIVHSDLKPANFLIVDGMLKLIDFGIANQMQPDTTSVVKDSQVGTVNYMPPEAIKDMSSSRENGKSKSKISPKSDVWSLGCILYYMTYGKTPFQQIINQISKLHAIIDPNHEIEFPDIPEKDLQDVLKCCLKRDPKQRISIPELLAHPYVQIQTHPVNQMAKGTTEEMKYVLGQLVGLNSPNSILKAAKTLYEHYSGGESHNSSSSKTFEKKRGKK
notes: Mps1 kinase, human, wild type, full-length polypeptide; also called active Mps1; source: baculovirus-infected Sf9 cells, purified (glutathione-agarose, eluted with glutathione)
B1: binds.

B2: GST-Mps1-KD (enzyme, human, UniProt P33981 1-857, looked up)
chain: MESEDLSGRELTIDSIMNKVRDIKNKFKNEDLTDELSLNKISADTTDNSGTVNQIMMMANNPEDWLSLLLKLEKNSVPLSDALLNKLIGRYSQAIEALPPDKYGQNESFARIQVRFAELKAIQEPDDARDYFQMARANCKKFAFVHISFAQFELSQGNVKKSKQLLQKAVERGAVPLEMLEIALRNLNLQKKQLLSEEEKKNLSASTVLTAQESFSGSLGHLQNRNNSCDSRGQTTKARFLYGENMPPQDAEIGYRNSLRQTNKTKQSCPFGRVPVNLLNSPDCDVKTDDSVVPCFMKRQTSRSECRDLVVPGSKPSGNDSCELRNLKSVQNSHFKEPLVSDEKSSELIITDSITLKNKTESSLLAKLEETKEYQEPEVPESNQKQWQSKRKSECINQNPAASSNHWQIPELARKVNTEQKHTTFEQPVFSVSKQSPPISTSKWFDPKSICKTPSSNTLDDYMSCFRTPVVKNDFPPACQLSTPYGQPACFQQQQHQILATPLQNLQVLASSSANECISVKGRIYSILKQIGSGGSSKVFQVLNEKKQIYAIKYVNLEEADNQTLDSYRNEIAYLNKLQQHSDKIIRLYDYEITDQYIYMVMECGNIDLNSWLKKKKSIDPWERKSYWKNMLEAVHTIHQHGIVHSDLKPANFLIVDGMLKLIAFGIANQMQPDTTSVVKDSQVGTVNYMPPEAIKDMSSSRENGKSKSKISPKSDVWSLGCILYYMTYGKTPFQQIINQISKLHAIIDPNHEIEFPDIPEKDLQDVLKCCLKRDPKQRISIPELLAHPYVQIQTHPVNQMAKGTTEEMKYVLGQLVGLNSPNSILKAAKTLYEHYSGGESHNSSSSKTFEKKRGKK
notes: Mps1 kinase, human, kinase-dead, full-length polypeptide; also called kinase-dead (D664A); source: baculovirus-infected Sf9 cells, purified (glutathione-agarose, eluted with glutathione)
B2: binds.
